Source: the supplement of paper PMC9112550, “Optimization of the antimicrobial peptide Bac7 by deep mutational scanning” (BMC Biology, 2022)

Test system: Escherichia coli TOP10
Assay: shrunken log2 fold change of peptide-encoding DNA abundance (4.5 h post-induction vs induction); higher = less antimicrobial activity (less host growth inhibition)
Conditions: time post-induction: 4.5 h; library: site-saturation at positions 5, 18, 19, 20
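Note: peptides expressed intracellularly from a pBAD plasmid library in pooled LB shake-flask culture, induced with 0.3% L-arabinose, DNA abundance read by NGS, three biological replicates, DESeq2 with apeglm shrinkage.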

Sequence	shrunken log2 fold change
RRIRFRPPRLPRPRPRPIVWPRP	0.0539
RRIRTRPPRLPRPRPRPSAMPRP	-0.0978
RRIRFRPPRLPRPRPRPKWIPRP	-0.699
RRIRIRPPRLPRPRPRPMSAPRP	-0.205
RRIRYRPPRLPRPRPRPCFRPRP	-0.266
RRIRVRPPRLPRPRPRPGFPPRP	0.141
RRIRKRPPRLPRPRPRPCDDPRP	-0.0472
RRIRSRPPRLPRPRPRPCEWPRP	0.0266
RRIRCRPPRLPRPRPRPLVQPRP	0.245
RRIRERPPRLPRPRPRPKPNPRP	0.0803
RRIRQRPPRLPRPRPRPKLVPRP	-0.0518
RRIRLRPPRLPRPRPRPGNEPRP	-0.0032
RRIRSRPPRLPRPRPRPCEVPRP	-0.333
RRIRTRPPRLPRPRPRPELAPRP	0.188
RRIRMRPPRLPRPRPRPVNQPRP	-0.0449
RRIRYRPPRLPRPRPRPFLMPRP	-0.922
RRIRFRPPRLPRPRPRPIDYPRP	-0.155
RRIRDRPPRLPRPRPRPMKMPRP	0.0275
RRIRVRPPRLPRPRPRPFERPRP	0.0254
RRIRSRPPRLPRPRPRPNNIPRP	-0.564
RRIRFRPPRLPRPRPRPYNMPRP	-0.725

Sequence	shrunken log2 fold change
RRIRVRPPRLPRPRPRPQVWPRP	0.345
RRIRWRPPRLPRPRPRPDRTPRP	0.179
RRIRMRPPRLPRPRPRPWIGPRP	-0.0941
RRIRARPPRLPRPRPRPWCIPRP	-0.319
RRIRSRPPRLPRPRPRPETHPRP	0.0531
RRIRQRPPRLPRPRPRPECLPRP	-0.21
RRIRWRPPRLPRPRPRPYMMPRP	-0.842
RRIRDRPPRLPRPRPRPVFDPRP	0.291
RRIRQRPPRLPRPRPRPGEDPRP	-0.0999
RRIRERPPRLPRPRPRPMCGPRP	-0.0439
RRIRLRPPRLPRPRPRPFGLPRP	-0.114
RRIRARPPRLPRPRPRPPDIPRP	0.289
RRIRVRPPRLPRPRPRPNTFPRP	-0.521
RRIRPRPPRLPRPRPRPKTSPRP	0.0127
RRIRNRPPRLPRPRPRPKGSPRP	-0.0293
RRIRSRPPRLPRPRPRPEYSPRP	-0.322
RRIRGRPPRLPRPRPRPILSPRP	0.516
RRIRGRPPRLPRPRPRPPHQPRP	0.806
RRIRYRPPRLPRPRPRPYLFPRP	-0.687
RRIRNRPPRLPRPRPRPTGSPRP	0.1
RRIRNRPPRLPRPRPRPRRPPRP	0.3

Sequence	shrunken log2 fold change
RRIRLRPPRLPRPRPRPTYGPRP	-0.0237
RRIRCRPPRLPRPRPRPVFPPRP	-0.15
RRIRMRPPRLPRPRPRPARIPRP	0.56
RRIRIRPPRLPRPRPRPACEPRP	0.17
RRIRLRPPRLPRPRPRPYKAPRP	-0.112
RRIRSRPPRLPRPRPRPFKYPRP	-0.418
RRIRCRPPRLPRPRPRPNYNPRP	-0.986
RRIRIRPPRLPRPRPRPAAVPRP	-0.181
RRIRCRPPRLPRPRPRPPWGPRP	0.122
RRIRYRPPRLPRPRPRPVATPRP	-0.281
RRIRMRPPRLPRPRPRPTAAPRP	2.79
RRIRLRPPRLPRPRPRPRDSPRP	-0.00311
RRIRMRPPRLPRPRPRPCSCPRP	0.183
RRIRYRPPRLPRPRPRPFYKPRP	-0.00388
RRIRHRPPRLPRPRPRPTCIPRP	-0.147
RRIRGRPPRLPRPRPRPDCIPRP	0.799
RRIRARPPRLPRPRPRPPVIPRP	0.0687
RRIRTRPPRLPRPRPRPITKPRP	0.0123
RRIRIRPPRLPRPRPRPVKYPRP	-9.3e-05
RRIRLRPPRLPRPRPRPWIMPRP	-0.224
RRIRPRPPRLPRPRPRPSFLPRP	-0.271
